The target in experiment [1] is T1, human vascular endothelial growth factor receptor-2 Fc chimera (KDR-Fc) (human, UniProt P35968 20-764).
T1 construct: range 1-764; purchased from R&D Systems; also called hKDR; human VEGF-R2-Fc; not shown: human IgG1 Fc
The experiment in a line: BIAcore, target-Fc immobilized. The procedure:
(§1) The binding kinetics of fibronectin-based scaffold proteins binding proteins to the target was measured using BIAcore 2000 biosensor (Pharmacia Biosensor). Human and mouse VEGF-R2-Fc fusions were immobilized onto a CM5 sensor chip and soluble binding proteins were injected at concentrations ranging from 0 to 100 nM in buffer 0 (10 mM HEPES, 150 mM NaCl, 0.005% Tween 20, pH 7.4). Sensorgrams were obtained at each concentration and were evaluated using a program, BIA Evaluation 2.0 (BIAcore), to determine the rate constants kₐ (kₒₙ) and kd (koff.) The affinity constant, KD was calculated from the ratio of rate constants […].
Background: In SPR one partner is held on a chip, and binding of the other changes the refractive index at the surface.
T1 sequence (P35968 20-764 limits assumed, change not shown, form in doubt): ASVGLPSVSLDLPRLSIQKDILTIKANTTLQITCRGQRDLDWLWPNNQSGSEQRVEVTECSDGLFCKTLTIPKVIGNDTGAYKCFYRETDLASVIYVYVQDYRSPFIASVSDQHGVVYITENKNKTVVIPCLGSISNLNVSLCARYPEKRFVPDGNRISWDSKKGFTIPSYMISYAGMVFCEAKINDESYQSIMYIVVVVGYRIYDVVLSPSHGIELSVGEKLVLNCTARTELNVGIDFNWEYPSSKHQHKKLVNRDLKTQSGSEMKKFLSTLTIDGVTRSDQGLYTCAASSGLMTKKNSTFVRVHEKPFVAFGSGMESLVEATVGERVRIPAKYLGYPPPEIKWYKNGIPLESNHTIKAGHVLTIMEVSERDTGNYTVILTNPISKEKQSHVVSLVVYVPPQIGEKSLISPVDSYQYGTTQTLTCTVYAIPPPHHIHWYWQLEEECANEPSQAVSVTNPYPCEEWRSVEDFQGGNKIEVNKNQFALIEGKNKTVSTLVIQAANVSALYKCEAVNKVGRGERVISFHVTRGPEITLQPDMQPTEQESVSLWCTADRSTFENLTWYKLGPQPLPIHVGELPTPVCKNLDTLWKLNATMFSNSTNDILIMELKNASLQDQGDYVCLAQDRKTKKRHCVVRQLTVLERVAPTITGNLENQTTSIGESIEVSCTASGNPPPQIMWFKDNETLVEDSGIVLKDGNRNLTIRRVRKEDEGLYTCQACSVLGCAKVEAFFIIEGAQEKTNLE

Experiment [2] concerns the target T2, mouse vascular endothelial growth factor receptor-2 Fc chimera (Flk-1-Fc) (mouse, UniProt P35918 20-762).
T2 construct: purchased from R&D Systems; also called mouse VEGF-R2-Fc; not shown: Fc part of the purchased chimera
The experiment is described as follows: BIAcore, target-Fc immobilized. The procedure:
as §1
T2 sequence (P35918 20-762, change not shown): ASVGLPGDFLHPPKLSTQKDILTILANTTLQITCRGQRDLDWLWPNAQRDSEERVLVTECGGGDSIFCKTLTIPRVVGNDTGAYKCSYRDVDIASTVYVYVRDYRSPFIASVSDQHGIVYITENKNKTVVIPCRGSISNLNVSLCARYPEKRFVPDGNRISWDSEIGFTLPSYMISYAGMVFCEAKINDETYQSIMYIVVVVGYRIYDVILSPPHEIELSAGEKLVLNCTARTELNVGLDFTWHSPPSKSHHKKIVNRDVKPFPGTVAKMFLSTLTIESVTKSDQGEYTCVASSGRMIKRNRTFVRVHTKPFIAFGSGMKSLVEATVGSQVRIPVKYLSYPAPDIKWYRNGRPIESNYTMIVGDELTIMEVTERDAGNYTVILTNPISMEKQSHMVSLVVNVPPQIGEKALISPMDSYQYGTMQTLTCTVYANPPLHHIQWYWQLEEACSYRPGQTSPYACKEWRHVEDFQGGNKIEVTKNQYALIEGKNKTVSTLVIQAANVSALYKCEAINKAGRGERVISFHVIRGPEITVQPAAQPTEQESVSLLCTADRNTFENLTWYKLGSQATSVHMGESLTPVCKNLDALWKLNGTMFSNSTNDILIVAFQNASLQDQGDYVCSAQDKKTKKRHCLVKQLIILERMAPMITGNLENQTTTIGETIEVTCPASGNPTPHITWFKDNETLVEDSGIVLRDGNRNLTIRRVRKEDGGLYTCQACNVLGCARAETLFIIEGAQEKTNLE

Experiment [3] has as its target T1, human vascular endothelial growth …. The experiment is described as follows: radioactive equilibrium binding assay. On the procedure: (§2) To prepare ³⁵S-labeled binding proteins for analysis, mRNA was prepared as described above for RNA-protein fusion production but the linker ligation step was omitted. The mRNA was expressed using rabbit reticulocyte lysate translation kit (Ambion) in the presence of ³⁵S-labeled Met at 30° C. for 1 hour. Expressed protein was purified on M2-agarose Flag beads (Sigma) as described above. This procedure produced the encoded protein without the nucleic acid tail. In a direct binding assay, VEGF-R2-Fc fusions in concentrations ranging from 0 to 200 nM were added to a constant concentration of the purified protein (0.2 or 0.5 nM) and incubated at 30° C. for 1 hour in buffer B. The receptor-binder complexes were captured using Protein A magnetic beads for another 10 minutes at room temperature using a Kingfisher™ The beads were washed with six reaction volumes of buffer B. The protein was eluted from the beads with 100 μL of 0.1 M KOH. […] of the reaction mixture and elution were dried onto a LumaPlate-96 (Packard) and the amount of ³⁵S on the plate was measured using a TopCount NXT instrument (Packard). The amount of fibronectin-based scaffold protein bound to the target was estimated as a percent of radioactivity eluted from Protein A magnetic beads compare to radioactivity in the reaction mixture. Nonspecific binding of fibronectin-based scaffold proteins to the beads was determined by measuring binding in the absence of KDR-Fc and represented less than 1-2% of the input. Specific binding was obtained through subtraction of nonspecific binding from total binding. Data was analyzed using the GraphPad Prizm software (GraphPad Software, Inc, San Diego, Calif.), fitted using a one site, non-linear binding equation.

The target in experiment [4] is T2, mouse vascular endothelial growth …. The experiment in a line: radioactive equilibrium binding assay. On the procedure:
as §2

In experiment [5] the target is T3, human vascular endothelial growth factor receptor-2 Fc chimera (KDR-Fc) (human, UniProt P35968 20-764).
T3 construct: range 1-764; also called human VEGFR-2; not shown: human IgG1 Fc
The experiment in a line: radioactive equilibrium binding assay, KDR-Fc. The procedure: as §2
T3 sequence (P35968 20-764 limits assumed, change not shown, form in doubt): as the sequence (P35968 20-764 limits assumed, change not shown, form in doubt) above

Experiment [6] addresses T4, mouse vascular endothelial growth factor receptor-2 Fc chimera (Flk-1-Fc) (mouse, UniProt P35918 20-762).
T4 construct: Bought from R&D Systems; also called mouse VEGFR-2; not shown: Fc part of the purchased chimera, not specified
The experiment in a line: radioactive equilibrium binding assay, Flk-1-Fc. On the procedure: as §2
T4 sequence (P35918 20-762, change not shown): as the sequence (P35918 20-762, change not shown) above

For experiment [7], the target named is T3, human vascular endothelial growth …. The experiment in a line: radioactive equilibrium binding assay, 1 nM KDR-Fc, % of input bound. An outline of the steps:
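Tracer: ³⁵S-Met protein from reticulocyte lysate, Flag-bead purified, no nucleic acid tail. 0.2/0.5 nM binder + 0–200 nM receptor-Fc, 30° C 1 h, buffer B; Protein A bead capture 10 min RT; 0.1 M KOH elution; scintillation count.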

Experiment [8] concerns the target T4, mouse vascular endothelial growth …. The experiment is described as follows: radioactive equilibrium binding assay, 1 nM Flk-1-Fc, % of input bound. In outline:
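Receptor-Fc fusions titrated from 0 to 200 nM against a fixed 0.2 or 0.5 nM of ³⁵S-labeled scaffold protein for 1 h at 30° C. Protein A bead pull-down followed by scintillation counting of eluate versus reaction mixture. Specific binding is total minus no-receptor binding, fitted to a one-site nonlinear equation.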

Experiment [9] has as its target T1, human vascular endothelial growth …. The experiment in a line: radioactive equilibrium binding assay, KDR-Fc. The procedure: as §2
Experiment [10] addresses T2, mouse vascular endothelial growth …. The experiment in a line: SPR (BIAcore), target immobilized. The procedure:
In vitro affinity measurements were made using surface plasmon resonance (SPR) (BIAcore) with both the human and mouse VEGF-receptor target proteins immobilized via amide chemistry on the BIAcore chip.
as §1

The text below walks through data of patent US20140179896A1 (published 2014).

Where a chain is given by its changes, count along the chain named.

B1: E6 (designed binder)
chain: EVVAATPTSLLISWRHPHFPTRYYRITYGETGGNSPVQEFTVPLQPPTATISGLKPGVDYTITGYAVTDGWNGRLLSIPISINYRT
notes: Del 1-8 10Fn3 clone; Flag-tagged in vitro translated protein in the radioactive assay, His6-tagged E. coli protein in BIAcore; tags left out
Broadly, the Kd is the equilibrium constant for the complex coming apart. A word on the koff: it is the rate constant with which the complex falls apart. Low readings indicate slow dissociation, high ones fast dissociation. As a reminder, the kon is a measure of how fast the partners come together. In the case of B1, the Kd in experiment [1] was 0.08 nM; in experiment [2], 2.02 nM; in experiment [3], below 0.4 nM; in [4] it was 7.1 nM. Further, the koff in [1] came to 6.7e-05 s⁻¹; in [2] it was 0.00136 s⁻¹. For the same molecule, the kon in [1] worked out at 890000 M⁻¹ s⁻¹; in [2] it was 670000 M⁻¹ s⁻¹.

B2: E26 (designed binder)
chain: B1 chain with D69V, G70E, W71R, L75E, S77M, I78T
notes: 10Fn3 clone, Del 1-8
Turning to B2, the Kd in [5] stood at 1.66 nM; in experiment [6] it was 2.05 nM. Further, the “Binding to 1 nM KDR, %” value in experiment [7] worked out at 27%. The “Binding to 1 nM Flk-1, %” value in experiment [8] turned out to be 20%.

B3: E5 (designed binder)
chain: B1 chain with W71Q, S77N, I78V
notes: Del 1-8 10Fn3 clone; Flag-tagged in vitro translated protein in the radioactive assay; tag left out
In the case of B3, the Kd in [3] is below 0.4 nM; in experiment [4], 3.2 nM.

B4: E29 (designed binder)
chain: B1 chain with D69V, G70E, W71R, L75V, S77M, I78T
notes: 10Fn3 clone, Del 1-8
Turning to B4, the Kd came to 1.51 nM in experiment [5] and 0.91 nM in experiment [6]. Moreover, in experiment [7], the “Binding to 1 nM KDR, %” value was 41%. Further, the “Binding to 1 nM Flk-1, %” value in experiment [8] was determined as 44%.

B5: K1 (designed binder)
chain: B1 chain with D69M, W71L, N72Y, R74H, L75E, S77L, I78T
notes: tag left out
Consider B5, for which, in experiment [9], the dissociation constant Kd was below 0.6 nM.

B6: K12 (designed binder)
chain: B1 chain with G70V, W71Y, G73D, R74H, L75E, L76I, S77K, I78T
notes: tag left out
Turning to B6, the Kd in experiment [9] was below 0.6 nM.

B7: E9 (designed binder)
chain: B1 chain with D69E, G70E, W71R, L75T, S77R, I78T
notes: 10Fn3 clone, Del 1-8
B7: the values for the Kd in [5] and in experiment [6] were 2.37 nM and 1.4 nM, respectively. Moreover, in [7], the “Binding to 1 nM KDR, %” value worked out at 24%. Besides, in experiment [8], the “Binding to 1 nM Flk-1, %” value was determined as 34%.

B8: E3 (designed binder)
chain: B1 chain with W71R, G73D, L75K, S77M, I78V
notes: as for B3
For B8, the Kd in [3] was below 1 nM; in experiment [4], 5.4 nM.

B9: K10 (designed binder)
chain: B1 chain with D69T, W71P, G73D, S77F, I78V
notes: tag left out
In the case of B9, in experiment [9], the Kd is below 0.6 nM.

B10: E3 (designed binder)
chain: B1 chain with W71R, G73D, L75K, S77M, I78V
notes: 10Fn3 clone, Del 1-8
As for B10, the Kd in experiment [5] came to 0.96 nM; in [6] it was 5.4 nM. Also, the “Binding to 1 nM KDR, %” value in experiment [7] was 37%. Moreover, in experiment [8], the “Binding to 1 nM Flk-1, %” value came out at 14%.

B11: K14 (designed binder)
chain: B1 chain with D69R, G70E, W71E, G73D, R74H, L75E, S77L
notes: tag left out
Turning to B11, in [9], the Kd was below 0.6 nM.

B12: E25 (designed binder)
chain: B1 chain with D69L, G70E, W71R, L75E, S77M, I78T
notes: as for B1
Take B12: the Kd was 0.21 nM in experiment [1], 0.76 nM in experiment [2], below 1.6 nM in [3] and below 1.3 nM in experiment [4]. Also, the koff turned out to be 5.2e-05 s⁻¹ in experiment [1] and 0.000378 s⁻¹ in experiment [2]. For the same molecule, the kon in experiment [1] amounted to 250000 M⁻¹ s⁻¹; in experiment [2] it was 500000 M⁻¹ s⁻¹.

B13: E25 (designed binder)
chain: B1 chain with D69L, G70E, W71R, L75E, S77M, I78T
notes: 10Fn3 clone, Del 1-8
Turning to B13, the Kd in experiment [5] amounted to 1.58 nM; in experiment [6] it was 1.3 nM. Further, the “Binding to 1 nM KDR, %” value in experiment [7] was 41%. Moreover, the “Binding to 1 nM Flk-1, %” value in experiment [8] was found to be 28%.

B14: E19 (designed binder)
chain: B1 chain with D69V, G70E, W71R, L75H, S77M, I78T
notes: 10Fn3 clone, Del 1-8
Turning to B14, the Kd in experiment [5] is 1.3 nM; in experiment [6], 0.66 nM. Further, the “Binding to 1 nM KDR, %” value in experiment [7] stood at 38%. For the same molecule, the “Binding to 1 nM Flk-1, %” value in [8] is 40%.

B15: K13 (designed binder)
chain: B1 chain with D69L, G70A, W71L, N72K, R74H, L75E, S77L, I78T
notes: tag left out
Turning to B15, the Kd in experiment [9] was below 0.6 nM.

B16: K15 (designed binder)
chain: B1 chain with D69E, G70V, W71H, N72H, G73D, L75E, L76I, S77K, I78T
notes: tag left out
With B16, in experiment [9], the Kd is below 0.4 nM.

B17: K9 (designed binder)
chain: B1 chain with D69F, W71L, N72Y, R74K, L75E, S77L
notes: tag left out
Turning to B17, the Kd in experiment [9] is below 1.8 nM.

B18: E28 (designed binder)
chain: B1 chain with D69L, G70E, W71R, L75E, S77M, I78V
notes: 10Fn3 clone, Del 1-8
B18: the Kd in experiment [5] is 1.63 nM; in [6] it was 2.1 nM. Also, the “Binding to 1 nM KDR, %” value in [7] worked out at 19%. In addition, the “Binding to 1 nM Flk-1, %” value in [8] amounted to 21%.

B19: E6 (designed binder)
chain: B1 chain
notes: 10Fn3 clone, Del 1-8
Regarding B19, the Kd was 0.35 nM in experiment [5] and 7.1 nM in experiment [6]. The “Binding to 1 nM KDR, %” value in [7] is 36%. For the same molecule, in experiment [8], the “Binding to 1 nM Flk-1, %” value was determined as 7%.

B20: E18 (designed binder)
chain: B1 chain with D69V, G70E, W71R, L75E, S77N, I78T
notes: 10Fn3 clone, Del 1-8
For B20, the Kd in [5] turned out to be 1.2 nM; in experiment [6] it was 0.53 nM. For the same molecule, the “Binding to 1 nM KDR, %” value in experiment [7] is 17%. Further, in [8], the “Binding to 1 nM Flk-1, %” value was 29%.

B21: E5 (designed binder)
chain: B1 chain with W71Q, S77N, I78V
notes: 10Fn3 clone, Del 1-8
Turning to B21, the figures for the Kd in [5] and in experiment [6] were 0.4 nM and 3.2 nM, respectively. In addition, in experiment [7], the “Binding to 1 nM KDR, %” value was 26%. Further, the “Binding to 1 nM Flk-1, %” value in experiment [8] amounted to 10%.

B22: K6 (designed binder)
chain: B1 chain with W71K, N72D, L75V, S77L, I78T
notes: tag left out
B22: the Kd in experiment [9] is below 0.9 nM.

B23: M5FL-PEG40 (designed binder)
chain: MGVSDVPRDLEVVAATPTSLLISWRHPHFPTRYYRITYGETGGNSPVQEFTVPLQPPLATISGLKPGVDYTITVYAVTKERNGRELFTPISINYRTEIDKPCQHHHHHH
modifications: branched 40 kD PEG coupled by maleimide chemistry to the cysteine residue at position 100
notes: also called M5FL 40K PEG
In [10], B23 gave an equilibrium dissociation constant (Kd) of 57.1 nM, a koff of 0.00054 s⁻¹ and an on-rate (kon) of 10000 M⁻¹ s⁻¹.
